Laboratory results taken from IntAct's records for PubMed 29039417.

B1: BBSome complex member BBS1 (Homo sapiens), Q8NFJ9 (parent)
chain: MAAASSSDSDACGAESNEANSKWLDAHYDPMANIHTFSACLALADLHGDGEYKLVVGDLGPGGQQPRLKVLKGPLVMTESPLPALPAAAATFLMEQHEPRTPALALASGPCVYVYKNLRPYFKFSLPQLPPNPLEQDLWNQAKEDRIDPLTLKEMLESIRETAEEPLSIQSLRFLQLELSEMEAFVNQHKSNSIKRQTVITTMTTLKKNLADEDAVSCLVLGTENKELLVLDPEAFTILAKMSLPSVPVFLEVSGQFDVEFRLAAACRNGNIYILRRDSKHPKYCIELSAQPVGLIRVHKVLVVGSTQDSLHGFTHKGKKLWTVQMPAAILTMNLLEQHSRGLQAVMAGLANGEVRIYRDKALLNVIHTPDAVTSLCFGRYGREDNTLIMTTRGGGLIIKILKRTAVFVEGGSEVGPPPAQAMKLNVPRKTRLYVDQTLREREAGTAMHRAFQTDLYLLRLRAARAYLQALESSLSPLSTTAREPLKLHAVVQGLGPTFKLTLHLQNTSTTRPVLGLLVCFLYNEALYSLPRAFFKVPLLVPGLNYPLETFVESLSNKGISDIIKVLVLREGQSAPLLSAHVNMPGSEGLAAA
partner: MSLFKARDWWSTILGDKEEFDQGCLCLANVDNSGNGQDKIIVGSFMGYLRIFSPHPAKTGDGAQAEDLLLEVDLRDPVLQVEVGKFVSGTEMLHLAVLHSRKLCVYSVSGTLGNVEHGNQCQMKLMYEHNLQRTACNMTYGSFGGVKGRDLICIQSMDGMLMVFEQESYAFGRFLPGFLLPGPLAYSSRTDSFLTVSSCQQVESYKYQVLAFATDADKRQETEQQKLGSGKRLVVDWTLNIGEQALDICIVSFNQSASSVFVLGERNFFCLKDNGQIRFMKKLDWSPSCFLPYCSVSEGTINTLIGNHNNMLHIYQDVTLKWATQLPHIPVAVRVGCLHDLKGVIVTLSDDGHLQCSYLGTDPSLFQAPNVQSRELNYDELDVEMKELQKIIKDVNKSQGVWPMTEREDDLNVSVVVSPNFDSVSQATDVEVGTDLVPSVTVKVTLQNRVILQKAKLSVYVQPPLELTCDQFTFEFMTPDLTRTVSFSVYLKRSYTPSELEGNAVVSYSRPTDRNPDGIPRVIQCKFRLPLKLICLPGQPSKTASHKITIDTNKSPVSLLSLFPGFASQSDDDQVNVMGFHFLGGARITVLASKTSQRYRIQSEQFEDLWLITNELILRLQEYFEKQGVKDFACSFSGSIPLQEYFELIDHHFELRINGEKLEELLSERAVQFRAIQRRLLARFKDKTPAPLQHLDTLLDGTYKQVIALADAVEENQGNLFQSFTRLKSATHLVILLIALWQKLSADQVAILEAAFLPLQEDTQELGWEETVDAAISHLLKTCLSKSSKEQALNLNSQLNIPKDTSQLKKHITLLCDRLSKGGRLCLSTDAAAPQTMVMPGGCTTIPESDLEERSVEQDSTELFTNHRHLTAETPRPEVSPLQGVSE

Variants of: B1
Conditions: with pthb1_human BBS9, Q3SYG4

Effect of a mutation on the interaction, with no effect:
MAAASSSDSDACGAESNEANSKWLDAHYDPMANIHTFSACLALADLHGDGEYKLVVGDLGPGGQQPRLKVLKGPLVMTESPLPALPAAAATFLMEQHEPRTPALALASGPCVYVYKNLRPYFKFSLPQLPPNPLEQDLWNQAKEDRIDPLTLKEMLESIRETAEEPLSIQSLRFLQLELSEMEAFVNQHKSNSIKRQTVITTMTTLKKNLADEDAVSCLVLGTENKELLVLDPEAFTILAKMSLPSVPVFLEVSGQFDVEFRLAAACRNGNIYILRRDSKHPKYCIELSAQPVGLIRVHKVLVVGSTQDSLHGFTHKGKKLWTVQMPAAILTMNLLEQHSRGLQAVMAGLANGEVRIYRDKALLNVIHTPDAVTSLCFGRYGREDNTLIMTTRGGGLIIKILKRTAVFVEGGSEVGPPPAQAMKLNVPRKTRLYVDQTLRKREAGTAMHRAFQTDLYLLRLRAARAYLQALESSLSPLSTTAREPLKLHAVVQGLGPTFKLTLHLQNTSTTRPVLGLLVCFLYNEALYSLPRAFFKVPLLVPGLNYPLETFVESLSNKGISDIIKVLVLREGQSAPLLSAHVNMPGSEGLAAA [E441K]
MAAASSSDSDACGAESNEANSKWLDAHYDPMANIHTFSACLALADLHGDGEYKLVVGDLGPGGQQPRLKVLKGPLVMTESPLPALPAAAATFLMEQHEPRTPALALASGPCVYVYKNLRPYFKFSLPQLPPNPLEQDLWNQAKEDRIDPLTLKEMLESIRETAEEPLSIQSLRFLQLELSEMEAFVNQHKSNSIKRQTVITTMTTLKKNLADEDAVSCLVLGTENKELLVLDPEAFTILAKMSLPSVPVFLEVSGQFDVEFRLAAACRNGNIYILRRDSKHPKYCIELSAQPVGLIRVHKVLVVGSTQDSLHGFTHKGKKLWTVQMPAAILTMNLLEQHSRGLQAVMAGLANGEVRIYRDKALLNVIHTPDAVTSLCFGRYGREDNTLIMTTRGGGLIIKILKRTAVFVEGGSEVGPPPAQAMKLNVPRKTRLYVDQTLRAREAGTAMHRAFQTDLYLLRLRAARAYLQALESSLSPLSTTAREPLKLHAVVQGLGPTFKLTLHLQNTSTTRPVLGLLVCFLYNEALYSLPRAFFKVPLLVPGLNYPLETFVESLSNKGISDIIKVLVLREGQSAPLLSAHVNMPGSEGLAAA [E441A]
MAAASSSDSDACGAESNEANSKWLDAHYDPMANIHTFSACLALADLHGDGEYKLVVGDLGPGGQQPRLKVLKGPLVMTESPLPALPAAAATFLMEQHEPRTPALALASGPCVYVYKNLRPYFKFSLPQLPPNPLEQDLWNQAKEDRIDPLTLKEMLESIRETAEEPLSIQSLRFLQLELSEMEAFVNQHKSNSIKRQTVITTMTTLKKNLADEDAVSCLVLGTENKELLVLDPEAFTILAKMSLPSVPVFLEVSGQFDVEFRLAAACRNGNIYILRRDSKHPKYCIELSAQPVGLIRVHKVLVVGSTQDSLHGFTHKGKKLWTVQMPAAILTMNLLEQHSRGLQAVMAGLANGEVRIYRDKALLNVIHTPDAVTSLCFGRYGREDNTLIMTTRGGGLIIKILKRTAVFVEGGSEVGPPPAQAMKLNVPRKTRLYVDQTLEEREAGTAMHRAFQTDLYLLRLRAARAYLQALESSLSPLSTTAREPLKLHAVVQGLGPTFKLTLHLQNTSTTRPVLGLLVCFLYNEALYSLPRAFFKVPLLVPGLNYPLETFVESLSNKGISDIIKVLVLREGQSAPLLSAHVNMPGSEGLAAA [R440E]
MAAASSSDSDACGAESNEANSKWLDAHYDPMANIHTFSACLALADLHGDGEYKLVVGDLGPGGQQPRLKVLKGPLVMTESPLPALPAAAATFLMEQHEPRTPALALASGPCVYVYKNLRPYFKFSLPQLPPNPLEQDLWNQAKEDRIDPLTLKEMLESIRETAEEPLSIQSLRFLQLELSEMEAFVNQHKSNSIKRQTVITTMTTLKKNLADEDAVSCLVLGTENKELLVLDPEAFTILAKMSLPSVPVFLEVSGQFDVEFRLAAACRNGNIYILRRDSKHPKYCIELSAQPVGLIRVHKVLVVGSTQDSLHGFTHKGKKLWTVQMPAAILTMNLLEQHSRGLQAVMAGLANGEVRIYRDKALLNVIHTPDAVTSLCFGRYGREDNTLIMTTRGGGLIIKILKRTAVFVEGGSEVGPPPAQAMKLNVPRKTRLYVDQTLKEREAGTAMHRAFQTDLYLLRLRAARAYLQALESSLSPLSTTAREPLKLHAVVQGLGPTFKLTLHLQNTSTTRPVLGLLVCFLYNEALYSLPRAFFKVPLLVPGLNYPLETFVESLSNKGISDIIKVLVLREGQSAPLLSAHVNMPGSEGLAAA [R440K]
MAAASSSDSDACGAESNEANSKWLDAHYDPMANIHTFSACLALADLHGDGEYKLVVGDLGPGGQQPRLKVLKGPLVMTESPLPALPAAAATFLMEQHEPRTPALALASGPCVYVYKNLRPYFKFSLPQLPPNPLEQDLWNQAKEDRIDPLTLKEMLESIRETAEEPLSIQSLRFLQLELSEMEAFVNQHKSNSIKRQTVITTMTTLKKNLADEDAVSCLVLGTENKELLVLDPEAFTILAKMSLPSVPVFLEVSGQFDVEFRLAAACRNGNIYILRRDSKHPKYCIELSAQPVGLIRVHKVLVVGSTQDSLHGFTHKGKKLWTVQMPAAILTMNLLEQHSRGLQAVMAGLANGEVRIYRDKALLNVIHTPDAVTSLCFGRYGREDNTLIMTTRGGGLIIKILKRTAVFVEGGSEVGPPPAQAMKLNVPRKTRLYVDQTLAEREAGTAMHRAFQTDLYLLRLRAARAYLQALESSLSPLSTTAREPLKLHAVVQGLGPTFKLTLHLQNTSTTRPVLGLLVCFLYNEALYSLPRAFFKVPLLVPGLNYPLETFVESLSNKGISDIIKVLVLREGQSAPLLSAHVNMPGSEGLAAA [R440A]
MAAASSSDSDACGAESNEANSKWLDAHYDPMANIHTFSACLALADLHGDGEYKLVVGDLGPGGQQPRLKVLKGPLVMTESPLPALPAAAATFLMEQHEPRTPALALASGPCVYVYKNLRPYFKFSLPQLPPNPLEQDLWNQAKEDRIDPLTLKEMLESIRETAEEPLSIQSLRFLQLELSEMEAFVNQHKSNSIKRQTVITTMTTLKKNLADEDAVSCLVLGTENKELLVLDPEAFTILAKMSLPSVPVFLEVSGQFDVEFRLAAACRNGNIYILRRDSKHPKYCIELSAQPVGLIRVHKVLVVGSTQDSLHGFTHKGKKLWTVQMPAAILTMNLLEQHSRGLQAVMAGLANGEVRIYRDKALLNVIHTPDAVTSLCFGRYGREDNTLIMTTRGGGLIIKILKRTAVFVEGGSEVGPPPAQAMKLNVPRKTRLYVDQTKREREAGTAMHRAFQTDLYLLRLRAARAYLQALESSLSPLSTTAREPLKLHAVVQGLGPTFKLTLHLQNTSTTRPVLGLLVCFLYNEALYSLPRAFFKVPLLVPGLNYPLETFVESLSNKGISDIIKVLVLREGQSAPLLSAHVNMPGSEGLAAA [L439K]
MAAASSSDSDACGAESNEANSKWLDAHYDPMANIHTFSACLALADLHGDGEYKLVVGDLGPGGQQPRLKVLKGPLVMTESPLPALPAAAATFLMEQHEPRTPALALASGPCVYVYKNLRPYFKFSLPQLPPNPLEQDLWNQAKEDRIDPLTLKEMLESIRETAEEPLSIQSLRFLQLELSEMEAFVNQHKSNSIKRQTVITTMTTLKKNLADEDAVSCLVLGTENKELLVLDPEAFTILAKMSLPSVPVFLEVSGQFDVEFRLAAACRNGNIYILRRDSKHPKYCIELSAQPVGLIRVHKVLVVGSTQDSLHGFTHKGKKLWTVQMPAAILTMNLLEQHSRGLQAVMAGLANGEVRIYRDKALLNVIHTPDAVTSLCFGRYGREDNTLIMTTRGGGLIIKILKRTAVFVEGGSEVGPPPAQAMKLNVPRKTRLYVDQTLRERAAGTAMHRAFQTDLYLLRLRAARAYLQALESSLSPLSTTAREPLKLHAVVQGLGPTFKLTLHLQNTSTTRPVLGLLVCFLYNEALYSLPRAFFKVPLLVPGLNYPLETFVESLSNKGISDIIKVLVLREGQSAPLLSAHVNMPGSEGLAAA [E443A]
MAAASSSDSDACGAESNEANSKWLDAHYDPMANIHTFSACLALADLHGDGEYKLVVGDLGPGGQQPRLKVLKGPLVMTESPLPALPAAAATFLMEQHEPRTPALALASGPCVYVYKNLRPYFKFSLPQLPPNPLEQDLWNQAKEDRIDPLTLKEMLESIRETAEEPLSIQSLRFLQLELSEMEAFVNQHKSNSIKRQTVITTMTTLKKNLADEDAVSCLVLGTENKELLVLDPEAFTILAKMSLPSVPVFLEVSGQFDVEFRLAAACRNGNIYILRRDSKHPKYCIELSAQPVGLIRVHKVLVVGSTQDSLHGFTHKGKKLWTVQMPAAILTMNLLEQHSRGLQAVMAGLANGEVRIYRDKALLNVIHTPDAVTSLCFGRYGREDNTLIMTTRGGGLIIKILKRTAVFVEGGSEVGPPPAQAMKLNVPRKTRLYVDQTLREEEAGTAMHRAFQTDLYLLRLRAARAYLQALESSLSPLSTTAREPLKLHAVVQGLGPTFKLTLHLQNTSTTRPVLGLLVCFLYNEALYSLPRAFFKVPLLVPGLNYPLETFVESLSNKGISDIIKVLVLREGQSAPLLSAHVNMPGSEGLAAA [R442E]
MAAASSSDSDACGAESNEANSKWLDAHYDPMANIHTFSACLALADLHGDGEYKLVVGDLGPGGQQPRLKVLKGPLVMTESPLPALPAAAATFLMEQHEPRTPALALASGPCVYVYKNLRPYFKFSLPQLPPNPLEQDLWNQAKEDRIDPLTLKEMLESIRETAEEPLSIQSLRFLQLELSEMEAFVNQHKSNSIKRQTVITTMTTLKKNLADEDAVSCLVLGTENKELLVLDPEAFTILAKMSLPSVPVFLEVSGQFDVEFRLAAACRNGNIYILRRDSKHPKYCIELSAQPVGLIRVHKVLVVGSTQDSLHGFTHKGKKLWTVQMPAAILTMNLLEQHSRGLQAVMAGLANGEVRIYRDKALLNVIHTPDAVTSLCFGRYGREDNTLIMTTRGGGLIIKILKRTAVFVEGGSEVGPPPAQAMKLNVPRKTRLYVDQTLREAEAGTAMHRAFQTDLYLLRLRAARAYLQALESSLSPLSTTAREPLKLHAVVQGLGPTFKLTLHLQNTSTTRPVLGLLVCFLYNEALYSLPRAFFKVPLLVPGLNYPLETFVESLSNKGISDIIKVLVLREGQSAPLLSAHVNMPGSEGLAAA [R442A]
MAAASSSDSDACGAESNEANSKWLDAHYDPMANIHTFSACLALADLHGDGEYKLVVGDLGPGGQQPRLKVLKGPLVMTESPLPALPAAAATFLMEQHEPRTPALALASGPCVYVYKNLRPYFKFSLPQLPPNPLEQDLWNQAKEDRIDPLTLKEMLESIRETAEEPLSIQSLRFLQLELSEMEAFVNQHKSNSIKRQTVITTMTTLKKNLADEDAVSCLVLGTENKELLVLDPEAFTILAKMSLPSVPVFLEVSGQFDVEFRLAAACRNGNIYILRRDSKHPKYCIELSAQPVGLIRVHKVLVVGSTQDSLHGFTHKGKKLWTVQMPAAILTMNLLEQHSRGLQAVMAGLANGEVRIYRDKALLNVIHTPDAVTSLCFGRYGREDNTLIMTTRGGGLIIKILKRTAVFVEGGSEVGPPPAQAMKLNVPRKTRLYVDQTLREKEAGTAMHRAFQTDLYLLRLRAARAYLQALESSLSPLSTTAREPLKLHAVVQGLGPTFKLTLHLQNTSTTRPVLGLLVCFLYNEALYSLPRAFFKVPLLVPGLNYPLETFVESLSNKGISDIIKVLVLREGQSAPLLSAHVNMPGSEGLAAA [R442K]
